# In the supplement of paper PMC9112550, “Optimization of the antimicrobial peptide Bac7 by deep mutational scanning” (BMC Biology, 2022):
# System: Escherichia coli TOP10
# Test: shrunken log2 fold change of peptide-encoding DNA abundance (4.5 h post-induction vs induction); higher = less antimicrobial activity (less host growth inhibition)
# Details: time post-induction: 4.5 h; library: site-saturation at positions 5, 18, 19, 20
# 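Also: peptides expressed intracellularly from a pBAD plasmid library in pooled LB shake-flask culture, induced with 0.3% L-arabinose, DNA abundance read by NGS, three biological replicates, DESeq2 with apeglm shrinkage.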
row,Sequence,shrunken log2 fold change
1,RRIRHRPPRLPRPRPRPQSKPRP,-0.342
2,RRIRVRPPRLPRPRPRPWKNPRP,0.0224
3,RRIRCRPPRLPRPRPRPMHHPRP,-0.796
4,RRIRGRPPRLPRPRPRPRSYPRP,0.288
5,RRIRVRPPRLPRPRPRPKPGPRP,0.507
6,RRIRLRPPRLPRPRPRPERYPRP,-0.0429
7,RRIRARPPRLPRPRPRPAGRPRP,0.723
8,RRIRVRPPRLPRPRPRPVKCPRP,-0.163
9,RRIRKRPPRLPRPRPRPWDIPRP,-0.0322
10,RRIRNRPPRLPRPRPRPWTVPRP,-0.0833
11,RRIRSRPPRLPRPRPRPEAWPRP,0.0495
12,RRIRIRPPRLPRPRPRPYHMPRP,-0.123
13,RRIRVRPPRLPRPRPRPKSVPRP,-0.00455
14,RRIRSRPPRLPRPRPRPQAEPRP,-0.0131
15,RRIRCRPPRLPRPRPRPYNWPRP,-0.917
16,RRIRMRPPRLPRPRPRPAKHPRP,0.542
17,RRIRTRPPRLPRPRPRPPIIPRP,0.0882
18,RRIRVRPPRLPRPRPRPEFHPRP,-0.489
19,RRIRSRPPRLPRPRPRPDIIPRP,-0.16
20,RRIRARPPRLPRPRPRPRVCPRP,0.0904

row,Sequence,shrunken log2 fold change
1,RRIRKRPPRLPRPRPRPMEDPRP,-0.00186
2,RRIRARPPRLPRPRPRPHSNPRP,-0.251
3,RRIRMRPPRLPRPRPRPCWIPRP,-0.351
4,RRIRMRPPRLPRPRPRPMYNPRP,-0.815
5,RRIRNRPPRLPRPRPRPVDHPRP,-0.01
6,RRIRSRPPRLPRPRPRPERQPRP,0.1
7,RRIRRRPPRLPRPRPRPYIVPRP,-0.263
8,RRIRNRPPRLPRPRPRPMLLPRP,-0.0366
9,RRIRYRPPRLPRPRPRPTWIPRP,-1.08
10,RRIRRRPPRLPRPRPRPPKYPRP,-0.14
11,RRIRLRPPRLPRPRPRPKKHPRP,-0.154
12,RRIRRRPPRLPRPRPRPYESPRP,0.0181
13,RRIRNRPPRLPRPRPRPIRIPRP,0.0229
14,RRIRNRPPRLPRPRPRPNLMPRP,-0.733
15,RRIRCRPPRLPRPRPRPAWIPRP,-0.197
16,RRIRTRPPRLPRPRPRPVKVPRP,0.00854
17,RRIRIRPPRLPRPRPRPPHMPRP,-0.416
18,RRIRFRPPRLPRPRPRPPSDPRP,0.201
19,RRIRWRPPRLPRPRPRPQIPPRP,-0.493
20,RRIRYRPPRLPRPRPRPSQDPRP,-0.561

row,Sequence,shrunken log2 fold change
1,RRIRRRPPRLPRPRPRPEWIPRP,0.361
2,RRIRLRPPRLPRPRPRPRHVPRP,-0.127
3,RRIRFRPPRLPRPRPRPMAFPRP,-0.126
4,RRIRNRPPRLPRPRPRPWGIPRP,-0.199
5,RRIRFRPPRLPRPRPRPPISPRP,-0.239
6,RRIRFRPPRLPRPRPRPNNNPRP,-0.714
7,RRIRERPPRLPRPRPRPRLTPRP,-0.0882
8,RRIRIRPPRLPRPRPRPDYTPRP,-0.00167
9,RRIRQRPPRLPRPRPRPSAPPRP,0.175
10,RRIRQRPPRLPRPRPRPAVYPRP,-0.15
11,RRIRTRPPRLPRPRPRPILWPRP,0.0348
12,RRIRSRPPRLPRPRPRPDLMPRP,-0.0144
13,RRIRARPPRLPRPRPRPQNWPRP,0.315
14,RRIRPRPPRLPRPRPRPPEYPRP,-0.558
15,RRIRLRPPRLPRPRPRPHIDPRP,-0.135
16,RRIRMRPPRLPRPRPRPESPPRP,2.01
17,RRIRDRPPRLPRPRPRPPYQPRP,0.251
18,RRIRARPPRLPRPRPRPGDKPRP,0.173
19,RRIRARPPRLPRPRPRPTWWPRP,0.568
20,RRIRFRPPRLPRPRPRPRASPRP,0.33
